B1: RAN GTPase-activating protein 1 (Arabidopsis thaliana (Mouse-ear cress)), Q9LE82 (parent)
chain: MDHSAKTTQNRVLSVKMWPPSKSTRLMLVERMTKNITTPSIFSRKYGLLSVEEAEQDAKRIEDLAFATANKHFQNEPDGDGTSAVHVYAKESSKLMLDVIKRGPQEESEVEVSKDGDVFFDISGGSRAFIEEEEARDLLRPLADPRNSYTKIRFSNRSFGSEAAKFAASVLSSIKDQLTEVDLSDFVAGRPEAEALEVMNMFSSALEGSKLRYLNLSDNALGEKGIRAFASLINSQHDLEELYLMNDGISEDAARAVRELLPSTDKIRVLQFHNNMTGDEGATAIAEIVRECPSLEDFRCSSTRIGSEGGVALAEALEHCSHLKKLDLRDNMFGVEGGIALAKTLSVLTHLTEIYMSYLNLEDEGTEALSEALLKSAPSLEVLELAGNDITVKSTGNLAACIASKQSLAKLNLSENELKDEGTILIAKAVEGHDQLVEVDLSTNMIRRAGARALAQTVVKKNTFKLLNINGNFISEEGIDEVNDMFKDCLDKLVPLDDNDPEGEDFEDEDEEEEGEDGNELESKLGSLKIKQGEE

Variants of: B1
Settings: with kn12c_arath KIN12C

| Variant | effect of a mutation on the interaction |
| --- | --- |
| MDHSAKTTQNRVLSVKMAAPSKSTRLMLVERMTKNITTPSIFSRKYGLLSVEEAEQDAKRIEDLAFATANKHFQNEPDGDGTSAVHVYAKESSKLMLDVIKRGPQEESEVEVSKDGDVFFDISGGSRAFIEEEEARDLLRPLADPRNSYTKIRFSNRSFGSEAAKFAASVLSSIKDQLTEVDLSDFVAGRPEAEALEVMNMFSSALEGSKLRYLNLSDNALGEKGIRAFASLINSQHDLEELYLMNDGISEDAARAVRELLPSTDKIRVLQFHNNMTGDEGATAIAEIVRECPSLEDFRCSSTRIGSEGGVALAEALEHCSHLKKLDLRDNMFGVEGGIALAKTLSVLTHLTEIYMSYLNLEDEGTEALSEALLKSAPSLEVLELAGNDITVKSTGNLAACIASKQSLAKLNLSENELKDEGTILIAKAVEGHDQLVEVDLSTNMIRRAGARALAQTVVKKNTFKLLNINGNFISEEGIDEVNDMFKDCLDKLVPLDDNDPEGEDFEDEDEEEEGEDGNELESKLGSLKIKQGEE [W18A;P19A] | decreasing interaction |

Source: IntAct's records for PubMed 19011093
